Literature values in paper PMC7179994.
pKd: −log10 of the molar value. Read-outs that look alike come from different tables or passages of the source. Values belong to the substance of their own block, whether it stands above or below them.

Columns and labels:
[1] = target: VE-cadherin (Homo sapiens) (UniProt P33151)
[2] = target: VLDL receptor (Homo sapiens) (UniProt P98155)
[3] = target: VE-cadherin (Homo sapiens) (UniProt P33151); remark: listed apart in the source

VE-cadherin (Homo sapiens), sequence (P33151 48-599): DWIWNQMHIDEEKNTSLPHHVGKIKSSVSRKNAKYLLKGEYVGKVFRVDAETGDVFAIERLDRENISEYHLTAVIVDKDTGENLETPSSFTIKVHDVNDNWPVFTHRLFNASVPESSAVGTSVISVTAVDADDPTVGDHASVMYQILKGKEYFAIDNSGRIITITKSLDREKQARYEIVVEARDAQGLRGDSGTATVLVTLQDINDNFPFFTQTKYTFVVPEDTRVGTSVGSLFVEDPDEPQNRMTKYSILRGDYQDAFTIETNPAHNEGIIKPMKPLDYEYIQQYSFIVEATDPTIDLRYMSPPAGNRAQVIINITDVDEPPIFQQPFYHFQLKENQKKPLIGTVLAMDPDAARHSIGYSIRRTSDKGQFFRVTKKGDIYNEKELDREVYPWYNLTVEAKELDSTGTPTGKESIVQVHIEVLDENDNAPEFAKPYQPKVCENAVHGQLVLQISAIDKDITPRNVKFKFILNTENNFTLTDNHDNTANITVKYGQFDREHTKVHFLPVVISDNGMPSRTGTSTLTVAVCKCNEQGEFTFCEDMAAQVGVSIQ
fibrin β15–42 15-42, sequence (P02675 15-42): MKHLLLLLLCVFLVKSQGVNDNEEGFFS
(β15–44)2 15-44, sequence (P02675 15-44): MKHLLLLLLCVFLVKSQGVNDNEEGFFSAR

- pKd [1]: 6.15
Substance: (β15–44)2 15-44 (from UniProt P02675)

- pKd [2]: 8.04
Substance: fibrin (from UniProt P02671)

- pKd [3]: 3.57
Substance: fibrin β15–42 15-42 (from UniProt P02675)
